From patent CN117683122A (SHENZHEN BAY LABORATORY; UNIV TSINGHUA, dated 2024) come the findings set out here.

Broadly, the Kd is the equilibrium constant for the complex coming apart. Low values mean higher affinity, high ones lower affinity.

B1: 抗体B161 (antibody, V domains shown)
VH: QVQLLESGGGLVKPGGSLRLSCAASGFTFSSYSMSWVRQAPGKGLEWVSSISGGSDYIYYADPVRGRFTISRDNAKNSVYLQMNSLRAEDTAVYYCGRGITGIFNWGQGTPVTVSS
VL: DIQLTQSPSSLSASVGDRVTITCRASQSINNYLNWYQQKPGKAPKVLIYAASSLPRGVPSRFSGSGSGTDFTLTISSLQPEDFASYYCQQSYTSPLTFGQGTKVEVKR
B2: 抗体B089 (antibody, V domains shown)
VH: EVQLLESGGGVVQPGRSLRLSCAASGFTFSSYAMHWVRQAPGKGLEWVAVISYDGSNKYYADSVKGRFTISRDNSKNTLYLQMNSLRAEDTAVYYCARFSGAYSYGYGVYWGQGTPVTVSS
VL: DIQLTQSPSFLSASVGDNVTITCRASQGIASRLAWYQQKPGKAPNLLISSSSTLQSGVPSRFTGSGYGTEFTLTMNTLQPEDSATYYCQQLNSYPLTFGGGTKVEIKR
B3: 抗体B083 (antibody, V domains shown)
VH: EVQLLESGGGVVRPGGSLRLSCAASGFTFGDYGMSWVRQAPGKGLEWVSGINWNGGSTGYADSVKGRFTISRDNAKNSLYLQMNSLRVEDSGVYYCARYGRVPDNWGQGTMVTVSS
VL: NIQLTQSPSSLSASVGDRVTITCRASQGVNNWLAWYQQKPGKAPKLLIYAASTLESGVPSRFSGSGSATDFTLTINGLQPEDFATYYCQQAKRFPWTFGQGTKVEIKR
B4: 抗体B019 (antibody, V domains shown)
VH: QVQLLESGGTLVQPGGSLRLSCAASGFSFRTHDMNWVRQAPGKGLEWVSHISSTGSTIYYADSVKGRFTISRDNAKNSLYLQMNSLRADDTAVYYCARDRFTIFGVGPPFYYMDVWGQGTLVTVSS
VL: DIQLTQSPSSLSASVGDRVTITCRASQGISSYLAWYQQKPGKAPKLLIYAASTLQSGVPSRFSGSGSGTDFTLTISSLQPEDFATYYCQQSYSTPRTFGQGTKVEIKR
B5: 抗体B026 (antibody, V domains shown)
VH: EVQLLESGGGVVQPGNSLRLSCAASGFTFSSYNMNWVRQAPGKGLEWVSSISSRSSYIYYADSVKGRFTISRDNAKNTLYLQMSSLRSEDTAVYFCVRRNGAFDIWGQGTMVTVSS
VL: B4 VL with L4M, G28S, S30T, S31T, A34N, T53S, S93G, T94I
B6: 抗体B010 (antibody, V domains shown)
VH: QVQLLDSGGGLVQPGGSLRLSCAASGFTFSSYAMHWVRQAPGKGLEWVAVISYDGSNKYYADSVKGRFTISRDNSKNTLYLQMNSLRAEDTAVYYCAQGWFDYWGQGTTVTVSS
VL: NIQMTQSPSTLSASVGDRVTITCRASQSIGPWLAWYQQKPGKAPKLLIYKASSLESGVPSRFSGSGSGTEFTLTISSLQPEDFATYHCQQYKSYPYSFGQGTKVDIKR

Substitutions are numbered along the chain they refer to.

This assay concerns the target 重组猴痘病毒表面蛋白B6R-His (monkeypox virus, UniProt P0DTN2 20-279).
The molecule B1 gave a Kd of less than 1 nM.

For B2, the Kd was less than 1 nM.

For B3, the Kd is less than 1 nM.

With B4, the Kd is less than 1 nM.

The molecule B5 showed a Kd of less than 1 nM.

B6 displayed a Kd of less than 1 nM.
